In test [1] the target is T1, SARS-CoV-2 spike protein trimer, Omicron (B.1.1.529) variant (SARS-CoV-2, UniProt P0DTC2 16-1213). Nature of the test: BLI. (In general: Biolayer interferometry detects binding as a change in optical thickness at a sensor tip.)
Test [2] addresses SARS-CoV-2 spike protein trimer, Alpha (B.1.1.7) variant (SARS-CoV-2, UniProt P0DTC2 16-1213).
Test [3] deals with SARS-CoV-2 spike protein trimer, Kappa (B.1.617.1) variant (SARS-CoV-2, UniProt P0DTC2 16-1213).
Test [4] concerns the target SARS-CoV-2 spike protein trimer, Gamma (P.1) variant (SARS-CoV-2, UniProt P0DTC2 16-1213).
For test [5], the target named is SARS-CoV-2 spike protein trimer, Epsilon (B.1.429) variant (SARS-CoV-2, UniProt P0DTC2 16-1213).
Test [6] has as its target T2, SARS-CoV-2 spike protein trimer, Beta (B.1.351) variant (SARS-CoV-2, UniProt P0DTC2 16-1213).
Test [7] concerns the target T1, SARS-CoV-2 spike protein trimer, …. Nature of the test: flow.
The target in test [8] is SARS-CoV-2 spike protein trimer, Omicron (BA.2) variant (SARS-CoV-2, UniProt P0DTC2 16-1213). Description: ELISA.
Test [9] concerns the target T1, SARS-CoV-2 spike protein trimer, …. Nature of the test: ELISA. Background: ELISA stands for enzyme-linked immunosorbent assay.
Test [10] has as its target SARS-CoV-2 spike protein trimer, Delta (B.1.617.2) variant (SARS-CoV-2, UniProt P0DTC2 16-1213). Description: ELISA.
The target of test [11] is T1, SARS-CoV-2 spike protein trimer, …. Nature of the test: BLI. This is another data set of the same source.
The target in test [12] is T2, SARS-CoV-2 spike protein trimer, Beta …. Nature of the test: BLI.
In test [13] the target is T1, SARS-CoV-2 spike protein trimer, …. Description: BLI. This is another data set of the same source.
The target in test [14] is T2, SARS-CoV-2 spike protein trimer, Beta …. Description: BLI. The source holds these as a separate data set.

Where two headings read alike, the source gives them in different places.

Drawing on patent US20240352445A1 (published 2024), this text covers Kd and IC50 for five molecules.

B1: LxA3-E4 (antibody, V domains shown)
VH: EVQLVESGGGLVQPGGSLRLSCEASGFTFPNQAMTWVRQAPGKGLEWIGVIASNADTYYASWAKGRFTISRDNSKNTLYLQMNSLRAEDTAVYYCARHPGSAGYGYGHYYAMDPWGQGTLVTVSS
VL: DIQMTQSPSSLSASVGDRVTITCQASENIRYAINWYQQKPGKAPKLLIYGATYRDEGVPSRFSGSGSGTDYTLTISSLQPEDFATYYCQQGYVVPNSFGGGTKVEIK
Usually Kd stands for the equilibrium constant for the complex coming apart. A higher Kd goes with a looser complex. B1: the Kd in test [1] was < 0.001 nM.

B2: humanized antibody hN2F (antibody, V domains shown)
VH: EVQLVESGGGLVQPGGSLRLSCTVSGFSLSTYAMSWVRQAPGKGLEWIGVIASNADTYYASWAKGRFTISRDNSKNTLYLQMNSLRAEDTAVYYCARHPGSAGYGYAVYYAMDPWGQGTLVTVSS
VL: DIQMTQSPSSLSASVGDRVTITCKASEDIRYGLNWYQQKPGKAPKLLIYGANTLEAGVPSRFSGSGSGTDFTLTISSLQPEDFATYYCQQGYSTPLTFGGGTKVEIK
One may read the IC50 as the midpoint of a concentration-inhibition curve. For the molecule B2, the half-maximal inhibitory concentration (IC50) in test [2] was 0.0561 µg/mL; in test [3], 0.0589 µg/mL; in test [4] it was 2.18 µg/mL; in test [5], 0.0101 µg/mL; in test [6], 1.29 µg/mL; in test [7] it was > 0.5 µg/mL.

B3: humanized antibody hN2Y (antibody, V domains shown)
VH: EVQLVESGGGLVQPGGSLRLSCTVSGFSLSTYAMSWVRQAPGKGLEWIGVIASNADTYYASWAKGRFTISRDNSKNTLYLQMNSLRAEDTAVYYCARHPGSAGYGYAVYYAMDPWGQGTLVTVSS
VL: DIQMTQSPSSLSASVGDRVTITCKASEDIRYGLNWYQQKPGKAPKLLIYGANTLEAGVPSRFSGSGSGTDYTLTISSLQPEDFATYYCQQGYSTPLTFGGGTKVEIK
B3: the IC50 came to 0.159 µg/mL in test [8]; 0.44 µg/mL in test [9]; 0.00419 µg/mL in [10]; 0.0704 µg/mL in test [2]; 0.0117 µg/mL in test [3]; 0.0588 µg/mL in test [4]. Moreover, the figures for the IC50 in test [5] and in test [6] were 0.0184 µg/mL and 0.0347 µg/mL, respectively. Further, the Kd in [11] came to 0.123 nM; in test [12], 0.193 nM; in test [13], 0.123 nM; in test [14], 0.193 nM.

B4: LxA3-B11 (antibody, V domains shown)
VH: EVQLVESGGGLVQPGGSLRLSCEASGFTFPNQAMTWVRQAPGKGLEWIGVIASNADTYYASWAKGRFTISRDNSKNTLYLQMNSLRAEDTAVYYCARHPGSAGYGYGHYYAMDPWGQGTLVTVSS
VL: DIQMTQSPSSLSASVGDRVTITCLASEQAHYAINWYQQKPGKAPKLLIYGTSLLAEGVPSRFSGSGSGTDFTLTISSLQPEDFATYYCQQGYIVPISFGGGTKVEIK
Consider B4, for which the Kd in test [1] was found to be 0.0449 nM.

B5: rabbit monoclonal antibody C-A11 (antibody, V domains shown)
VH: QSLEESGGRLVTPGTPLTLTCTVSGFSLSTYAMSWVRQAPGKGLEWIGVIASNADTYYASWAKGRITISKTSTTVDLKITSPTTEDTATYFCARHPGSAGYGYAVYYAMDPWGPGTLVTVSS
VL: AIEMTQSPSSLAASVGDTVTITCKASEDIRYGLNWYQQKLGIAPKLLIYGANTLEAGVPSRFSGSGSETDYTLTISSVQAEDAGIYYCQQGYSTPLTFGAGTKVEIK
For the molecule B5, the IC50 in test [2] was 0.0495 µg/mL; in test [3] it was 0.0141 µg/mL; in [4] it was 0.0548 µg/mL; in test [5], 0.00314 µg/mL; in test [6], 0.0218 µg/mL; in test [7] it was > 0.5 µg/mL. For the same molecule, the Kd in test [12] and in test [14] was 0.0404 nM each time.
